Source: article PMC9472132 (Journal for Immunotherapy of Cancer, 2022)
Read-outs that look alike come from different tables or passages of the source. Blank lines part the entries; values can stand above or below the binder they belong to.

Experiments:
[1] = target: T1, human CD27 expressed on CHO-K1 cells (human, UniProt P26842); experiment: ELISA
[2] = target: rhesus monkey CD27 expressed on CHO-K1 cells (Macaca mulatta, UniProt F7BYS2); experiment: ELISA
[3] = target: T2, rhesus monkey CD27 on primary peripheral blood T cells (Macaca mulatta, UniProt F7BYS2); experiment: flow cytometry on cells
[4] = target: T3, human CD27 on primary peripheral blood T cells (Homo sapiens (Human)., UniProt P26842); experiment: flow cytometry on cells
[5] = target: T2, rhesus monkey CD27 on primary …; experiment: flow cytometry on cells; remark: listed apart in the source
[6] = target: T3, human CD27 on primary peripheral blood …; experiment: flow cytometry on cells; remark: listed apart in the source
[7] = target: human CD27-IgG fusion protein (Homo sapiens (Human)., UniProt P26842); experiment: SPR
[8] = target: rhesus monkey CD27-IgG fusion protein (Macaca mulatta, UniProt F7BYS2); experiment: SPR
[9] = target: T1, human CD27 expressed on CHO-K1 cells; experiment: flow cytometry on cells

- EC50 [1]: 0.325 nM
- EC50 [2]: 0.193 nM
- EC50 [3]: 1.58 nM
- EC50 [4]: 1.54 nM
- EC50 [5]: 1.92 nM
- EC50 [6]: 1.3 nM
- Kd [7]: 0.63 nM
- koff [7]: 0.00012 s⁻¹
- kon [7]: 190000 M⁻¹ s⁻¹
- Kd [8]: 0.97 nM
- koff [8]: 0.00022 s⁻¹
- kon [8]: 230000 M⁻¹ s⁻¹
- IC50 [9]: 2.85 nM
B1: varlilumab analog (anti-CD27 fully human IgG1 antibody, made in-house from published patented sequences) (antibody, V domains shown)
VH: QVQLVESGGGVVQPGRSLRLSCAASGFTFSSYDMHWVRQAPGKGLEWVAVIWYDGSNKYYADSVKGRFTISRDNSKNTLYLQMNSLRAEDTAVYYCARGSGNWGFFDYWGQGTLVTVSS
VL: DIQMTQSPSSLSASVGDRVTITCRASQGISRWLAWYQQKPEKAPKSLIYAASSLQSGVPSRFSGSGSGTDFTLTISSLQPEDFATYYCQQYNTYPRTFGQGTKVEIK

- EC50 [1]: 0.072 nM
- EC50 [2]: 0.054 nM
- EC50 [3]: 0.17 nM
- EC50 [4]: 0.32 nM
- EC50 [5]: 0.22 nM
- EC50 [6]: 0.3 nM
- Kd [7]: 5.1 nM
- koff [7]: 0.0011 s⁻¹
- kon [7]: 220000 M⁻¹ s⁻¹
- Kd [8]: 4.3 nM
- koff [8]: 0.001 s⁻¹
- kon [8]: 230000 M⁻¹ s⁻¹
- IC50 [9]: 0.24 nM
B2: MK-5890 (humanized anti-human CD27 agonist antibody, hIgG1) (antibody, V domains shown)
VH: EIQLVQSGAEVKKPGASVKVSCKASGYTFTNYGMNWVKQAPGQGLKWMGWINTNTGEPTYAEEFKGRFTFTLDTSISTAYMELSSLRSEDTAVYYCAREGDAMDYWGQGTTVTVSS
VL: EIVLTQSPATLSLSPGERATLSCSASSSVSYMHWYQQKPGQAPKRWIYDTSKLASGVPARFSGSGSGTDYSLTISSLEPEDFAVYYCQQWNSYPFTFGQGTKLEIK
